Source: PMC7018876, “The novel llama-human chimeric antibody has potent effect in lowering LDL-c levels in hPCSK9 transgenic rats” (Clinical and Translational Medicine, 2020)

B1: VHH-B11 (VHH)
VHH: EVQLVESGGGSVQAGGSLRLSCTVSGYTYSSNCMGWFRQAPGKEHEGVASIYIGGGSTYYADSVKGRFTISQDNAKNTVYLQMNSLKPEDTAMYYCAVGCQGLVDFGYWDQGTQVTVSS
notes: llama anti-hPCSK9 VHH from an immune phage library; 17 kDa on SDS-PAGE; also called monovalent VHH-B11; monovalency VHH-B11; source: E. coli, supernatant of TES lysate (screening); E. coli induced by IPTG, and Pichia pastoris X33, purified (Histrap FF column)
B2: VHH-G8 (VHH)
VHH: DVQLVESGGGSVQAGGSLTLSCVVSGYRGQKICTGWFRQFPGMEREAVARILPRGPNTQYTDSVKGRFTISQDAAKNTVNLQMSSLKPKDTAMYYCAQGWGGASDWALQPRRYNYWGQGTQVTVSS
notes: llama anti-hPCSK9 VHH from an immune phage library; source: E. coli, supernatant of TES lysate (screening); E. coli induced by IPTG, and Pichia pastoris X33, purified (Histrap FF column)
B3: VHH-H12 (VHH)
VHH: GGGLVQAGGSLRLSCAASRSTFSGYAMAWFRQAPGKEREFVACIEREIPGHPAWSGLTYYADSKKGRFTISRDNAKNTVYLQMNSLKPEDTAVYYCAAGLKYPAQKHYDYDYWGQGTQVTVPS
notes: as for B2
B4: VHH-A6 (VHH)
VHH: PGAAAGVGGGSVQAGGSLRLSCAASRYTDRTRCIAWFRQVPGKEREGVACLDRAGGQSAYADSAKGRFTVSQDNAGNTVYLQMDNLIPEDSAMYYCAAAGVGQWYTCLQKFIRDKRSFANWGQGTQVTVSS
notes: as for B2

Molecular target: T1, human proprotein convertase subtilisin/kexin type 9, his tagged antigen (Homo sapiens, UniProt Q8NBP7)
T1 construct: human PCSK9; also called hPCSK9; PCSK9; source: bought: Sinobiological, China, Cat# 29698-H08H
T1 sequence (Q8NBP7 31-692): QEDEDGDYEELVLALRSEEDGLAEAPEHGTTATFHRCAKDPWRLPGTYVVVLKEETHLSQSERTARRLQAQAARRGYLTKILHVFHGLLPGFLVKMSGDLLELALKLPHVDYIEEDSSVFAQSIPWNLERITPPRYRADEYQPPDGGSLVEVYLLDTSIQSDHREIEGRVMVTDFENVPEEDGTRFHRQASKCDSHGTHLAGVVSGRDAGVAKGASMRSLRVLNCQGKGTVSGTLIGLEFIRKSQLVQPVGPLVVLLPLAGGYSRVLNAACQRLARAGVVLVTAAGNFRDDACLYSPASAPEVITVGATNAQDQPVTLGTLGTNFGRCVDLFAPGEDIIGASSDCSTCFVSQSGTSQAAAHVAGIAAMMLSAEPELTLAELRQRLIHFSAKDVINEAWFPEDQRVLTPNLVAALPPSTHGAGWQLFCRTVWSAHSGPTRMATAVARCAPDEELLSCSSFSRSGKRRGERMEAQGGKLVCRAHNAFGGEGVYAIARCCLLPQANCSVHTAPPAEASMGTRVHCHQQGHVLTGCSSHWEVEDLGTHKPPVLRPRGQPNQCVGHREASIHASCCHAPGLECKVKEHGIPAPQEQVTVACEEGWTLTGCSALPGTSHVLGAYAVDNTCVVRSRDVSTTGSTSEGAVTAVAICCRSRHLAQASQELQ
Experiment: SPR; hPCSK9-his on CM5 chip (~800 RU); 6 or 7-point two-fold dilutions of the VHH-based proteins injected; 25 °C; global fit with floating Rmax; Biacore T200
Conditions: both partners purified

Binder | Kd [nM] | koff [s⁻¹] | kon [M⁻¹ s⁻¹]
B1 | 8.69 | 0.00235 | 271000
B2 | 73 | 0.0114 | 162000
B3 | 704 | 0.00524 | 7440
B4 | 29 | 0.000447 | 15400

Molecular target: T1, human proprotein convertase …
Experiment: SPR; lysate kinetics screening; hPCSK9-his immobilised on CM5 chip (~18000 RU); supernatants of TES lysates of clones flowed over; 25 °C; binding 120 s, dissociation 140 s; binding value read at ~120 s, stability value at ~135 s; Biacore T200
Conditions: one partner purified

Binder | binding value (RU) | stability value (RU)
B1 | 409 | 472
B2 | 132 | 160
B3 | 272 | 373
B4 | 166 | 239
